# B1: library; numbered along this chain (parent)
# chain: MRKPRAAVGSGHRKQAASQEGRQKHAKNNSQAKPSACDGLARQPEEVVLQASVSSYHLFRDVAEVTAFRGSLLSWYDQEKRDLPWRRRAEDEMDLDRRAYAVWVSEVMLQQTQVATVINYYTGWMQKWPTLQDLASASLEEVNQLWAGLGYYSRGRRLQEGARKVVEELGGHMPRTAETLQQLLPGVGRYTAGAIASIAFGQATGVVDGNVARVLCRVRAIGADPSSTLVSQQLWGLAQQLVDPARPGDFNQAAMELGATVCTPQRPLCSQCPVESLCRARQRVEQEQLLASGSLSGSPDVEECAPNTGQCHLCLPPSEPWDQTLGVVNFPRKASRKPPREESSATCVLEQPGALGAQILLVQRPNSGLLAGLWEFPSVTWEPSEQLQRKALLQELQRWAGPLPATHLRHLGEVVHTFSHIKLTYQVYGLALEGQTPVTTVPPGARWLTQEEFHTAAVSTAMKKVFRVYQGQQPGTCMGSKRSQVSSPCSRKKPRMGQQVLDNFFRSHISTDAHSLNSAAQ
# Variants of: B1
# Experiment: 8OG:A repair function score (normalized; synonymous = 0, nonsense = -1) (normalized log-likelihood score); higher = more repair activity (WT-like)
# Details: with 8OG:A DNA repair reporter (GFP) in HEK-293 MUTYH KO cells
# Experimental: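 Saturation mutagenesis (NNN codon scan) of the MUTYH cDNA (521-aa nuclear isoform NM_001048174.1 / NP_001041639), stably expressed under doxycycline induction in HEK-293 MUTYH knockout cells. Cells were co-transfected with an 8OG:A-bearing GFP repair reporter plus mCherry and sorted 72 h later into GFP+ and GFP− bins, three replicates per tile. The Rosace log2 enrichment (GFP+ vs GFP−) was converted per tile to a normalized function score with synonymous variants centered at 0 and nonsense variants (codons 1-471) at -1; low-abundance variants were removed.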
row,Variant,8OG:A repair function score
1,L109Q,-0.022
2,L109P,-1
3,L109F,-0.916
4,L109E,-1.07
5,L109T,-0.266
6,L109G,-0.659
7,L109C,-0.0119
8,L109D,-1.16
9,L109N,-0.45
10,L109A,0.00548
11,L109H,-0.619
12,L109W,-0.957
13,L109K,-0.951
14,L109V,-0.838
15,L109I,-1.04
16,L109M,-0.105
17,L109R,-1.05
18,L109S,-0.213
19,L109Y,-1.24
20,Q111M,-1.12
21,Q111A,-0.258
22,Q111Y,-1.17
23,Q111S,-0.201
24,Q111F,-1.08

row,Variant,8OG:A repair function score
1,Q111E,-1.24
2,Q111P,-1.13
3,Q111D,-0.941
4,Q111W,-0.869
5,Q111K,-0.553
6,Q111R,-0.248
7,Q111N,-0.242
8,Q111V,-0.38
9,Q111G,-0.557
10,Q111L,-0.931
11,Q111T,-0.764
12,Q111H,-0.591
13,Q111I,-1.18
14,Q111C,-0.764
15,R98W,-0.0663
16,R98S,-0.2
17,R98I,-0.145
18,R98P,-0.714
19,R98Y,-0.0815
20,R98N,-0.122
21,R98K,-0.0169
22,R98Q,-0.236
23,R98L,-0.107
24,R98V,-0.16

row,Variant,8OG:A repair function score
1,R98M,-0.316
2,R98T,-0.164
3,R98H,-0.232
4,V104L,-0.583
5,V104T,-0.472
6,V104D,-1.33
7,V104W,-0.707
8,V104F,-1.1
9,V104G,-0.976
10,V104P,-1.01
11,V104M,-0.192
12,V104A,-0.365
13,V104I,-0.19
14,V104E,-0.936
15,V104R,-1.11
16,V104S,-0.759
17,V104N,-1.04
18,V104C,-0.133
19,V104H,-1.31
20,V104Y,-1.27
21,V104Q,-1.17
22,V104K,-0.731
23,Y100T,-1.56
24,Y100V,-1.41

row,Variant,8OG:A repair function score
1,Y100E,-1.42
2,Y100N,-1.17
3,Y100P,-2.33
4,Y100R,-1.63
5,Y100H,-1.01
6,Y100F,-0.679
7,Y100G,-1.64
8,Y100K,-1.96
9,Y100C,-1.66
10,Y100L,-1.29
11,Y100S,-1.56
12,Y100A,-1.95
13,Y100I,-1.67
14,Y100D,-1.79
15,Y100Q,-1.23
16,Y100M,-1.24
17,W103T,-0.833
18,W103R,-1.22
19,W103G,-0.73
20,W103S,-1.14
21,W103C,-0.655
22,W103K,-1.37
23,W103P,-1.09
24,W103F,-0.399

row,Variant,8OG:A repair function score
1,W103D,-1.19
2,W103N,-1.2
3,W103L,-0.377
4,W103M,-0.283
5,W103E,-1.13
6,W103I,-1.17
7,W103H,-0.97
8,W103V,-0.986
9,W103Q,-0.686
10,W103A,-0.808
11,W103Y,-0.166
12,E106S,-1.21
13,E106F,-0.995
14,E106L,-1.25
15,E106Q,-1.51
16,E106D,-0.903
17,E106Y,-1.24
18,E106K,-1.45
19,E106P,-1.62
20,E106T,-1.01
21,E106M,-0.994
22,E106G,-1.3
23,E106W,-1.04
24,E106R,-1.42

row,Variant,8OG:A repair function score
1,E106A,-0.944
2,E106C,-1.19
3,E106I,-1.13
4,E106V,-1.33
5,E106N,-1.72
6,E106H,-1.74
7,A101V,-0.0177
8,A101E,-0.00955
9,A101Y,-0.0479
10,A101H,-0.0529
11,A101L,-0.0936
12,A101P,-0.398
13,A101T,-0.047
14,A101Q,-1.09
15,A101G,-0.024
16,A101D,-0.0136
17,A101K,-0.0477
18,A101I,-0.0179
19,A101N,-0.0446
20,A101W,-0.762
21,A101F,-0.00851
22,A101M,-0.0323
23,A101S,0.00626
24,A101R,-0.0207

row,Variant,8OG:A repair function score
1,A101C,-0.00146
2,Q113W,-0.172
3,Q113A,-0.108
4,Q113E,-0.529
5,Q113G,-0.109
6,Q113R,0.032
7,Q113I,-0.279
8,Q113F,-0.237
9,Q113T,0.157
10,Q113N,-0.167
11,Q113M,-0.593
12,Q113D,-0.327
13,Q113L,-0.239
14,Q113Y,0.0661
15,Q113S,-0.0696
16,Q113K,-0.158
17,Q113C,-0.133
18,Q113V,-0.43
19,Q113P,-0.116
20,Q113H,-0.405
21,V102H,-2.8
22,V102F,-0.714
23,V102D,-0.89
24,V102C,-0.092

row,Variant,8OG:A repair function score
1,V102K,-1.71
2,V102G,-1.36
3,V102M,-0.352
4,V102N,-1.28
5,V102S,-0.376
6,V102T,-0.0943
7,V102W,-1.13
8,V102Y,-1.01
9,V102I,-0.00401
10,V102Q,-0.275
11,V102P,-1.21
12,V102R,-1.41
13,V102A,-0.644
14,V102E,-1.11
15,V102L,-0.259
16,Q110G,0.0252
17,Q110S,-1.26
18,Q110L,-0.353
19,Q110R,-0.82
20,Q110F,-1.24
21,Q110P,-0.29
22,Q110V,0.0461
23,Q110C,-0.75
24,Q110H,-0.0864

row,Variant,8OG:A repair function score
1,Q110A,-2.51
2,A99K,-1.18
3,A99Q,-2.46
4,A99N,-1.45
5,A99Y,-0.837
6,A99H,-1.07
7,A99R,-1.8
8,A99C,-0.408
9,A99V,-0.708
10,A99G,-0.0185
11,A99E,-1.34
12,A99W,-1.08
13,A99L,-0.788
14,A99F,-1.14
15,A99I,-0.617
16,A99M,-0.378
17,A99P,-0.584
18,A99D,-3
19,A99S,-0.124
20,A99T,-0.459
21,M108P,-1.2
22,M108V,-1.11
23,M108K,-1.01
24,M108I,-0.761

row,Variant,8OG:A repair function score
1,M108N,-1.18
2,M108C,-0.99
3,M108H,-1.36
4,M108F,-0.641
5,M108A,-1.06
6,M108G,-1.18
7,M108T,-0.981
8,M108Q,-0.453
9,M108E,-0.887
10,M108R,-1.2
11,M108W,-1.11
12,M108Y,-0.819
13,M108L,-0.662
14,M108D,-0.793
15,M108S,-1.28
16,T116F,-0.000589
17,T116C,-0.0685
18,T116D,-1.03
19,T116I,-0.262
20,T116A,-0.122
21,T116E,-0.305
22,T116G,-0.179
23,T116H,0.0217
24,T112C,-0.907

row,Variant,8OG:A repair function score
1,T112Y,-1.19
2,T112V,-0.914
3,T112W,-1.35
4,T112H,-0.634
5,T112S,-0.314
6,T112L,-1.42
7,T112M,-1.06
8,T112D,-1.3
9,T112F,-1.17
10,T112R,-0.922
11,T112P,-1.38
12,T112E,-0.925
13,T112A,-1.03
14,T112N,-0.879
15,T112G,-0.908
16,T112Q,-0.591
17,T112K,-1.01
18,T112I,-1.18
19,V107Y,-0.533
20,V107R,-0.87
21,V107Q,-0.746
22,V107F,-0.314
23,V107N,-0.735
24,V107S,-0.135

row,Variant,8OG:A repair function score
1,V107G,-0.0408
2,V107I,0.0887
3,V107L,-0.266
4,V107K,-0.731
5,V107E,-0.669
6,V107D,-1.44
7,V107A,0.0286
8,V107P,-1.01
9,V107W,-0.894
10,V107M,0.0622
11,V107H,-0.608
12,V107C,-0.0803
13,V107T,-0.0133
14,A115C,-0.0964
15,A115I,-0.0495
16,A115P,-0.0424
17,A115V,0.00984
18,A115K,-0.0104
19,A115E,0.0471
20,A115D,-0.0868
21,A115W,-0.182
22,A115Q,-0.0206
23,A115F,-0.146
24,A115G,-0.0228

row,Variant,8OG:A repair function score
1,A115M,-0.164
2,A115L,-0.0647
3,A115N,0.178
4,A115Y,-0.206
5,A115S,-0.0518
6,A115T,-0.106
7,A115R,0.092
8,A115H,0.0405
9,S105E,-0.676
10,S105F,-1.43
11,S105H,-0.786
12,S105R,-0.765
13,S105I,-0.549
14,S105P,-0.822
15,S105V,-0.566
16,S105M,-0.981
17,S105Y,-1.24
18,S105L,-0.798
19,S105A,-0.0215
20,S105D,-0.841
21,S105G,-0.13
22,S105C,-0.577
23,S105T,-0.804
24,S105Q,-0.69

row,Variant,8OG:A repair function score
1,S105K,-1.25
2,S105W,-0.677
3,S105N,-0.802
4,V114R,-0.297
5,V114D,-0.453
6,V114T,-0.141
7,V114P,-1.09
8,V114A,0.0344
9,V114Q,-0.313
10,V114C,-0.178
11,V114E,-0.932
12,V114I,-0.181
13,V114G,-0.449
14,V114S,-0.184
15,V114W,-0.527
16,V114Y,-0.241
17,V114F,-0.42
18,V114H,-0.935
19,V114L,-0.441
20,V114K,-0.435
21,V114M,-1.07
22,V114N,-0.367
